Assay results taken from paper PMC12416549 (2024).
Residue numbers refer to the chain shown, from its start. Numbers in names are those of the source.

B1: G54C (designed binder)
chain: MTLQELLREEALRRAEAEAFRYALELLAEKFPEQKEYLLDLAEEIESQIRSLSCVDVEDVRKFLDKEWAWVKELLAEHPAELAEVEAARAARLAELRAEVEAKVAA
B2: I49P (designed binder)
chain: B1 chain with I49P, C54G
B3: A87C (designed binder)
chain: B1 chain with C54G, A87C
B4: G54S (designed binder)
chain: B1 chain with C54S
B5: M1T (designed binder)
chain: B1 chain with M1T, C54G
B6: S51P (designed binder)
chain: B1 chain with S51P, C54G
B7: L39W (designed binder)
chain: B1 chain with L39W, C54G
B8: A90F (designed binder)
chain: B1 chain with C54G, A90F
B9: Y22F (designed binder)
chain: B1 chain with Y22F, C54G
B10: E58D (designed binder)
chain: B1 chain with C54G, E58D
B11: D65R (designed binder)
chain: B1 chain with C54G, D65R
B12: S53R (designed binder)
chain: B1 chain with S53R, C54G
B13: E18A (designed binder)
chain: B1 chain with E18A, C54G
B14: L74H (designed binder)
chain: B1 chain with C54G, L74H
B15: E67K (designed binder)
chain: B1 chain with C54G, E67K
B16: E58A (designed binder)
chain: B1 chain with C54G, E58A
B17: A83M (designed binder)
chain: B1 chain with C54G, A83M
B18: K72R (designed binder)
chain: B1 chain with C54G, K72R
B19: E95D (designed binder)
chain: B1 chain with C54G, E95D
B20: E99A (designed binder)
chain: B1 chain with C54G, E99A
B21: A80W (designed binder)
chain: B1 chain with C54G, A80W
B22: A90H (designed binder)
chain: B1 chain with C54G, A90H
B23: E36C (designed binder)
chain: B1 chain with E36C, C54G
B24: E99Y (designed binder)
chain: B1 chain with C54G, E99Y
B25: Y37H (designed binder)
chain: B1 chain with Y37H, C54G
B26: E81C (designed binder)
chain: B1 chain with C54G, E81C
B27: E43V (designed binder)
chain: B1 chain with E43V, C54G
B28: W70M (designed binder)
chain: B1 chain with C54G, W70M
B29: E5K (designed binder)
chain: B1 chain with E5K, C54G
B30: L82P (designed binder)
chain: B1 chain with C54G, L82P
B31: L3Q (designed binder)
chain: B1 chain with L3Q, C54G
B32: R50F (designed binder)
chain: B1 chain with R50F, C54G
B33: Q4W (designed binder)
chain: B1 chain with Q4W, C54G
B34: S51T (designed binder)
chain: B1 chain with S51T, C54G
B35: A80V (designed binder)
chain: B1 chain with C54G, A80V
B36: Q48R (designed binder)
chain: B1 chain with Q48R, C54G
B37: S53A (designed binder)
chain: B1 chain with S53A, C54G
B38: A42T (designed binder)
chain: B1 chain with A42T, C54G
B39: F20D (designed binder)
chain: B1 chain with F20D, C54G
B40: A76P (designed binder)
chain: B1 chain with C54G, A76P
B41: A19C (designed binder)
chain: B1 chain with A19C, C54G
B42: E86R (designed binder)
chain: B1 chain with C54G, E86R
B43: Y22L (designed binder)
chain: B1 chain with Y22L, C54G
B44: D59G (designed binder)
chain: B1 chain with C54G, D59G
B45: R61T (designed binder)
chain: B1 chain with C54G, R61T
B46: E9C (designed binder)
chain: B1 chain with E9C, C54G
B47: A69L (designed binder)
chain: B1 chain with C54G, A69L
B48: R92A (designed binder)
chain: B1 chain with C54G, R92A
B49: S51K (designed binder)
chain: B1 chain with S51K, C54G
B50: R50C (designed binder)
chain: B1 chain with R50C, C54G
B51: K35P (designed binder)
chain: B1 chain with K35P, C54G
B52: E81M (designed binder)
chain: B1 chain with C54G, E81M
B53: R97L (designed binder)
chain: B1 chain with C54G, R97L
B54: A105W (designed binder)
chain: B1 chain with C54G, A105W
B55: A42F (designed binder)
chain: B1 chain with A42F, C54G
B56: F31L (designed binder)
chain: B1 chain with F31L, C54G
B57: R21L (designed binder)
chain: B1 chain with R21L, C54G
B58: L6F (designed binder)
chain: B1 chain with L6F, C54G
B59: A87V (designed binder)
chain: B1 chain with C54G, A87V

Biological target: T1, TNFR1 (Homo sapiens, UniProt P19438)
T1 chain: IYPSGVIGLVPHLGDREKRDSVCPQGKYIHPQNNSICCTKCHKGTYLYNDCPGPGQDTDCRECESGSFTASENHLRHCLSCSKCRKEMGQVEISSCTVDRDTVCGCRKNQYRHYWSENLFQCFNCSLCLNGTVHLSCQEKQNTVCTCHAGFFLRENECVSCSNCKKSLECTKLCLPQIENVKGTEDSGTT
Test: yeast display SC50

| Binder | apparent Kd (screen) [pM] |
| --- | --- |
| B1 | 24400 |
| B2 | 24400 |
| B3 | 446 |
| B4 | 956 |
| B5 | 490 |
| B6 | 593 |
| B7 | 869 |
| B8 | 869 |
| B9 | 490 |
| B10 | 539 |
| B11 | 718 |
| B12 | 2050 |
| B13 | 718 |
| B14 | 790 |
| B15 | 2730 |
| B16 | 718 |
| B17 | 593 |
| B18 | 869 |
| B19 | 593 |
| B20 | 1270 |

| Binder | apparent Kd (screen) [pM] |
| --- | --- |
| B21 | 446 |
| B22 | 869 |
| B23 | 539 |
| B24 | 718 |
| B25 | 11400 |
| B26 | 790 |
| B27 | 539 |
| B28 | 13800 |
| B29 | 539 |
| B30 | 5840 |
| B31 | 22200 |
| B32 | 1160 |
| B33 | 539 |
| B34 | 405 |
| B35 | 869 |
| B36 | 1860 |
| B37 | 956 |
| B38 | 1050 |
| B39 | 11400 |
| B40 | 2050 |

| Binder | apparent Kd (screen) [pM] |
| --- | --- |
| B41 | 490 |
| B42 | 1270 |
| B43 | 718 |
| B44 | 653 |
| B45 | 593 |
| B46 | 405 |
| B47 | 490 |
| B48 | 956 |
| B49 | 1270 |
| B50 | 539 |
| B51 | 2730 |
| B52 | 593 |
| B53 | 653 |
| B54 | 869 |
| B55 | 3300 |
| B56 | 869 |
| B57 | 653 |
| B58 | 2050 |
| B59 | 539 |
